# Data as given in patent US20210238276A1 (INTEGRAL MOLECULAR, published 2021).
# T1: hsGLUT4 F405A (human, UniProt P14672 1-509)
# T1 sequence: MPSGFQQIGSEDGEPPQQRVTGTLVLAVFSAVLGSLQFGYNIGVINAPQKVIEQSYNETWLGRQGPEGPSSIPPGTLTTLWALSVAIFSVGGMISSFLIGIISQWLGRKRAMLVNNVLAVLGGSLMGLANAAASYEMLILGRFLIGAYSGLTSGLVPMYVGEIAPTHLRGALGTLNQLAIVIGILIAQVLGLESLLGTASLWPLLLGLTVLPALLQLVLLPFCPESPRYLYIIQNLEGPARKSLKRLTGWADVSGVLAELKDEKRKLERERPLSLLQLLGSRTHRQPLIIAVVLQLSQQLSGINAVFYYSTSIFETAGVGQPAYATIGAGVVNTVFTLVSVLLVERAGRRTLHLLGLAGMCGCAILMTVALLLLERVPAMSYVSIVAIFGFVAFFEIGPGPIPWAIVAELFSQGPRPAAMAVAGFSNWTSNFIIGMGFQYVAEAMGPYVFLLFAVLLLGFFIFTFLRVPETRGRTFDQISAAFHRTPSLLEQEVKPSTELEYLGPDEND
# T2: hsGLUT4 G348A (human, UniProt P14672 1-509)
# T2 sequence: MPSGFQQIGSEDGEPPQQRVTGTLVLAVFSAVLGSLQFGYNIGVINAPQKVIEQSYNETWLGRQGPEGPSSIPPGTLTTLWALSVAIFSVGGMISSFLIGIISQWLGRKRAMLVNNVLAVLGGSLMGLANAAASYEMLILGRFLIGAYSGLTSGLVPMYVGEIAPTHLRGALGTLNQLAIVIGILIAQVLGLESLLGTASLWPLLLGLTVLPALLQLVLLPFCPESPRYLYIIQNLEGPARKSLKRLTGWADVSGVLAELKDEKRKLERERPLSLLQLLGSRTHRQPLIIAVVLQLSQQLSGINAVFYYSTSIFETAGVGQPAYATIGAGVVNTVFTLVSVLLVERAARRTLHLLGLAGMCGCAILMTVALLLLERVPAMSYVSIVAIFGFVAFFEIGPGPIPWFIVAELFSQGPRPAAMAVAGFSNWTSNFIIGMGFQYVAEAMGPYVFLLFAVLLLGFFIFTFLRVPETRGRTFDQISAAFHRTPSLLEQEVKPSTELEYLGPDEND
# T3: hsGLUT4 M158A (human, UniProt P14672 1-509)
# T3 sequence: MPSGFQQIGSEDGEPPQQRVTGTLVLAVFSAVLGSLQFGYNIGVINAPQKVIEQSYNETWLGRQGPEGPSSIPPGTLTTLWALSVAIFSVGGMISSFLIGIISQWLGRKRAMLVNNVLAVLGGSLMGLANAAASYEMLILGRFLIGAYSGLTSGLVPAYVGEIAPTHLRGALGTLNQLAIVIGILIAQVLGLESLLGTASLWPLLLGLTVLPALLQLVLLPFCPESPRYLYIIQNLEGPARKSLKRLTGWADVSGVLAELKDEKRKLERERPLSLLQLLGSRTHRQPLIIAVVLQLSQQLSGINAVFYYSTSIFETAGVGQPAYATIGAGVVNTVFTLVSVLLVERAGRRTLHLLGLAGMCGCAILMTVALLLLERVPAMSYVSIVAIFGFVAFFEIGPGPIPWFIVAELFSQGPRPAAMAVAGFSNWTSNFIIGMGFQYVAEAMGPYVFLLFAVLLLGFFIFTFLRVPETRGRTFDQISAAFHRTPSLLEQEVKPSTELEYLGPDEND
# T4: hsGLUT4 M112A (human, UniProt P14672 1-509)
# T4 sequence: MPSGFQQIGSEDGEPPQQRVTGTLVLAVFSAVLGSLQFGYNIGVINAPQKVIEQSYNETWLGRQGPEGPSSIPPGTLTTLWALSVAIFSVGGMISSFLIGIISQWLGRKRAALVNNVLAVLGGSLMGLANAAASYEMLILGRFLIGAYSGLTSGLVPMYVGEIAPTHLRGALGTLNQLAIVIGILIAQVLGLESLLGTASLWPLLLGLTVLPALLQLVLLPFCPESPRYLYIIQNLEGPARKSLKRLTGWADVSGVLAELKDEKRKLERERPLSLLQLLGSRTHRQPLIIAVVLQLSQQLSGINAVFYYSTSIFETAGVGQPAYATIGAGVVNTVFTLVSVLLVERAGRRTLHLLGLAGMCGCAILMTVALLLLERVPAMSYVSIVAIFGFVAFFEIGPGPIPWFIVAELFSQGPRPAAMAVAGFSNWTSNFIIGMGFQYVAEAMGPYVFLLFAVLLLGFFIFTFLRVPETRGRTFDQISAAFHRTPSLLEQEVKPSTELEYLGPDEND
# Legend:
# Assay in all cases: flow cytometry, alanine-scan library in HEK-293T
# [1] = molecular target: T1, hsGLUT4 F405A
# Method: (§1) Because of the state-dependence of the isolated MAbs, we next wished to understand the mechanism by which each MAb could recognize GLUT4 in its different conformations. The residues required for binding of each MAb were determined using shotgun mutagenesis comprehensive alanine scanning (Davidson E & Doranz B J (2014) A High-Throughput Shotgun Mutagenesis Approach to Mapping B-cell Antibody Epitopes. Immunology, which is hereby incorporated by reference in its entirety). All residues of hsGLUT4 were individually mutated to alanine, with existing alanines changed to serines. Mutations were obtained for 508 of the 509 residues of GLUT4 (excluding the initiating methionine). The entire mutation library was transfected into human HEK-293T cells in a 384-well array format (one clone per well) and assessed for immunoreactivity using high-throughput flow cytometry.
# (§2) HEK-293T cells were transfected by CaPO₄ with plasmids in 6-well culture plates (Falcon) at 750,000 cells/well. At 48 hours post transfection, cells were stained with anti-V5 and anti-GLUT4 MAbs (purified scFv, 2 μg/ml) followed by biotinylated goat anti-mouse or human antibody (1:500) and streptavidin-PerCP (1:500). Fluorescence was detected using an Intellicyt high-throughput flow cytometer (HTFC; Intellicyt, Albuquerque, N. Mex.). For cell permeabilization, cells were treated with saponin at 0.1% in PBS for 20 minutes. To discriminate intact (live) and permeabilized (dead) cells without the use of detergent, propidium iodide (PI) was added to HEK-293T cells at 1 ug/ml just prior to flow cytometry. Where indicated, cytochalasin B (Sigma) was used at a final concentration of 10 uM and phloretin (Sigma) was used at a final concentration of 100 uM, each added in 10% NGS for 30 minutes prior to antibody staining as well as included with the primary antibody.
# [2] = molecular target: T2, hsGLUT4 G348A
# Method: as §1, §2
# [3] = molecular target: T3, hsGLUT4 M158A
# Method: as §1, §2
# [4] = molecular target: T4, hsGLUT4 M112A
# Method: as §1, §2
Molecule,% of binding to wild type GLUT4 [1],% of binding to wild type GLUT4 [2],% of binding to wild type GLUT4 [3],% of binding to wild type GLUT4 [4]
1F8 (antibody),107%,109%,95%,120%
"AB108 (Fc fusion, Bivalent scFv-Fc; also called MAb AB108; not shown: Fc fragment of human IgG1, cloned in frame with the scFv) scFv: ALTQPSSVSANLGGTVKITCSGSSGSYGWYQQKAPGSAPVTLIYRNDKRPSDIPSRFSGSESGSTGTLTITGVQAEDEAVYFCGGYDSSAGYAAFGAGTTLTVLGQSSRSSGGGGSSGGGGSAVTLDESGGGLQTPGGALSLVCKASGFTFSSHGMGWVRQAPGKGLEWVGSISTGRYTFYAPAVKGRATISRDNGQSTLRLQLNNLRAEDTGTYYCTKCAGLNGCGGGEIDAWGHGTEVIVSS",103%,94%,110%,57%
"AB111 (Fc fusion, Bivalent scFv-Fc; also called MAb AB111; not shown: Fc fragment of human IgG1, cloned in frame with the scFv) scFv: ALTQPSSVSANPGETVKITCSGSGSWYGWFQQKSPGSAPVTVIYSNDKRPSDIPSRFSGSKSGSTSTLTITGVQVEDEAVYYCGNWDIFGAGTTLTVLGQSSRSSGGGGSSGGGGSAVTLDESGGGLQTPGGALSLVCKASGFTFSSHGMGWVRQAPGKGLEWVASISTGRYTFYAPAVKGRATISRDNGQSTVRLQLNNLRAEDTATYYCTKCAGLNGCGGGEIDAWGHGTEVIVSS",118%,161%,107%,79%
"AB101 (scFv, Chicken-derived clone used as a control; the four lead clones were tested as scFv-human IgG1 Fc; also called MAb AB101) scFv: ALTQPSSVSANPGETVKITCSGSSNSYGWYQQKSPGSAPVTVIYYNDKRPSDIPSRFSGSKSDSTHTLTITGVRAEDEAVYFCGSYDSTYVGIFGAGTTLTVLGQSSRSSGGGGSSGGGGSAVTLDESGGGLQTPGGTLSLVCKASGFTFSSNAMGWVRQAPGKGLEWVAGISSDGRYTKYGSAVKGRATISRDNGQSTVRLQLNNLRAEDTGTYFCAKAFGNNYRRIYAGQIDAWGHGTEVIVSS",106%,101%,126%,103%
